By Kd is commonly meant the free concentration of one partner at which half of the binding sites on the other are occupied at equilibrium, for simple one-to-one binding.

Experiment [1] concerns the target PSD95 PDZ3 (Rattus norvegicus) (UniProt P31016). Particulars: cited from earlier work.
Experiment [2] has as its target GST-PDZ3 fusion protein (PDZ3 domain of SAP97). Kind of experiment: SPR; Biacore3000; anti-GST antibody immobilised, GST-PDZ3 captured (1200-1700 RU), GST on the reference cell subtracted; peptides as analytes at 62.5 nM to 12.8 µM, 30 µl/min; HBS (0.01 M HEPES, 0.15 M NaCl, 3 mM EDTA, 0.005% Surfactant P20); steady-state affinity fit, 1:1 model. (In general: In SPR one partner is held on a chip, and binding of the other changes the refractive index at the surface.)

Chain of UniProt P31016 (P31016 310-396): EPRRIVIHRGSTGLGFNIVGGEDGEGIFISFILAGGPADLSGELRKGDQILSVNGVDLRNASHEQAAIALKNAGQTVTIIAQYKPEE

For the molecule “CRIPT C-terminal 9 amino acids (from UniProt Q792Q4)”, the equilibrium dissociation constant (Kd) in experiment [1] is 1 µM.

B1: peptide CHRK1 (C-terminal 18 amino acids of CRIPT) (peptide)
peptide: AMCGKKVLDTKNYKQTSV
B1 showed a Kd in experiment [2] of 6.57 µM.
